# In patent US20180155451A1 (published 2018):
# T1: FcγRIIb extracellular domain with C-terminal His tag (human, UniProt P31994 43-217)
# T1 construct: extracellular domain; also called FcgRIIb; 2b; not shown: His tag at the C terminus
# T1 sequence (looked up): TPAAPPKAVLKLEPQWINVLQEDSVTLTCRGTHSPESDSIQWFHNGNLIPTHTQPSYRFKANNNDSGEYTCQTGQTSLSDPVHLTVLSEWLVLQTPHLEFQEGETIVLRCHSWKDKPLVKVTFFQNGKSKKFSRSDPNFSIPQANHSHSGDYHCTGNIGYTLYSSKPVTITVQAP
# Tests used:
# [1] = target: T2, FcγRIIIa extracellular domain with C-terminal His tag (human, UniProt P08637 17-208); experiment: SPR (Biacore), captured antibody, FcγR as analyte; relative to GpH7-A5/GpH7-B3/GpL16-k0 = 100
# T2 construct: extracellular domain; also called FcgRIIIa; 3a; not shown: His tag at the C terminus
# T2 sequence (P08637 17-208): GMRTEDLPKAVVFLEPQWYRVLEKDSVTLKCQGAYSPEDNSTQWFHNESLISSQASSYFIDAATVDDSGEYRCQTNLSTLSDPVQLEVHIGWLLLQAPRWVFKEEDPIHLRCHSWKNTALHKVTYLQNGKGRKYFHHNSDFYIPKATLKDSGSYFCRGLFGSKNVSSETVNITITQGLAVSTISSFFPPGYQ
# Protocol: (§1) Analysis of interaction between objective antibody and the FcγR was carried out using Biacore T100 (GE Healthcare). HBS-EP+ (GE Healthcare) was used as the running buffer, and the measurement temperature was set to 25° C. Chips produced by immobilizing the antigen peptide by the amine coupling method to a Series S Sencor Chip CM5 (GE Healthcare), or alternatively, chips produced by allowing preliminarily biotinylated antigen peptides to interact with and immobilize onto a Series S Sensor Chip SA (certified) (GE Healthcare) were used. Antibodies of interest were captured onto an antigen peptide-immobilized chip, and allowed to interact to each FcγR diluted with running buffer. To regenerate and repeatedly use the chip, the antibodies captured on the chip were washed off by reacting 10 mM glycine-HCl, pH 1.5.
# (§2) The FcγR-binding activity of each antibody was assessed primarily using as an indicator the FcγR-binding activity and dissociation constant for FcγR.
# [2] = target: T1, FcγRIIb extracellular domain with …; experiment: as above
# Protocol: as §1, §2
Binder,He/Con_3a (IIIa binding) [1],He/Con_2b (IIb binding) [2]
"GpH7-A5/GpH7-B3 variant G237_20W/GpL16-k0 (heterodimerized antibody, He Ab) (antibody, human IgG1, kappa, Anti-glypican-3 IgG1; the alteration is in the GpH7-B3 chain only; also called G237W) heavy 1: not shown heavy 2: not shown light: DIVMTQSPLSLPVTPGEPASISCQASESLVHSNRNTYLHWYLQKPGQSPQLLIYKVSNRFSGVPDRFSGSGSGTDFTLKISRVEAEDVGVYYCSQNTHVPPTFGQGTKVEIERTVAAPSVFIFPPSDEQLKSGTASVVCLLNNFYPREAKVQWKVDNALQSGNSQESVTEQDSKDSTYSLSSTLTLSKADYEKHKVYACEVTHQGLSSPVTKSFNRGEC",19.7 % of HeCon Ab,193 % of HeCon Ab
"GpH7-A5/GpH7-B3 variant L234_09D/GpL16-k0 (heterodimerized antibody, He Ab) (antibody, human IgG1, kappa, Anti-glypican-3 IgG1; the alteration is in the GpH7-B3 chain only; also called L234D) heavy 1: not shown heavy 2: not shown light: DIVMTQSPLSLPVTPGEPASISCQASESLVHSNRNTYLHWYLQKPGQSPQLLIYKVSNRFSGVPDRFSGSGSGTDFTLKISRVEAEDVGVYYCSQNTHVPPTFGQGTKVEIERTVAAPSVFIFPPSDEQLKSGTASVVCLLNNFYPREAKVQWKVDNALQSGNSQESVTEQDSKDSTYSLSSTLTLSKADYEKHKVYACEVTHQGLSSPVTKSFNRGEC",117 % of HeCon Ab,150 % of HeCon Ab
"GpH7-A5/GpH7-B3 variant L235_04F/GpL16-k0 (heterodimerized antibody, He Ab) (antibody, human IgG1, kappa, Anti-glypican-3 IgG1; the alteration is in the GpH7-B3 chain only; also called L235F) heavy 1: not shown heavy 2: not shown light: DIVMTQSPLSLPVTPGEPASISCQASESLVHSNRNTYLHWYLQKPGQSPQLLIYKVSNRFSGVPDRFSGSGSGTDFTLKISRVEAEDVGVYYCSQNTHVPPTFGQGTKVEIERTVAAPSVFIFPPSDEQLKSGTASVVCLLNNFYPREAKVQWKVDNALQSGNSQESVTEQDSKDSTYSLSSTLTLSKADYEKHKVYACEVTHQGLSSPVTKSFNRGEC",79.1 % of HeCon Ab,118 % of HeCon Ab
"GpH7-A5/GpH7-B3 variant L235_09D/GpL16-k0 (heterodimerized antibody, He Ab) (antibody, human IgG1, kappa, Anti-glypican-3 IgG1; the alteration is in the GpH7-B3 chain only; also called L235D) heavy 1: not shown heavy 2: not shown light: DIVMTQSPLSLPVTPGEPASISCQASESLVHSNRNTYLHWYLQKPGQSPQLLIYKVSNRFSGVPDRFSGSGSGTDFTLKISRVEAEDVGVYYCSQNTHVPPTFGQGTKVEIERTVAAPSVFIFPPSDEQLKSGTASVVCLLNNFYPREAKVQWKVDNALQSGNSQESVTEQDSKDSTYSLSSTLTLSKADYEKHKVYACEVTHQGLSSPVTKSFNRGEC",91.6 % of HeCon Ab,106 % of HeCon Ab
"GpH7-A5/GpH7-B3 variant L235_15Y/GpL16-k0 (heterodimerized antibody, He Ab) (antibody, human IgG1, kappa, Anti-glypican-3 IgG1; the alteration is in the GpH7-B3 chain only; also called L235Y) heavy 1: not shown heavy 2: not shown light: DIVMTQSPLSLPVTPGEPASISCQASESLVHSNRNTYLHWYLQKPGQSPQLLIYKVSNRFSGVPDRFSGSGSGTDFTLKISRVEAEDVGVYYCSQNTHVPPTFGQGTKVEIERTVAAPSVFIFPPSDEQLKSGTASVVCLLNNFYPREAKVQWKVDNALQSGNSQESVTEQDSKDSTYSLSSTLTLSKADYEKHKVYACEVTHQGLSSPVTKSFNRGEC",80.6 % of HeCon Ab,149 % of HeCon Ab
"GpH7-A5/GpH7-B3 variant L235_16H/GpL16-k0 (heterodimerized antibody, He Ab) (antibody, human IgG1, kappa, Anti-glypican-3 IgG1; the alteration is in the GpH7-B3 chain only; also called L235H) heavy 1: not shown heavy 2: not shown light: DIVMTQSPLSLPVTPGEPASISCQASESLVHSNRNTYLHWYLQKPGQSPQLLIYKVSNRFSGVPDRFSGSGSGTDFTLKISRVEAEDVGVYYCSQNTHVPPTFGQGTKVEIERTVAAPSVFIFPPSDEQLKSGTASVVCLLNNFYPREAKVQWKVDNALQSGNSQESVTEQDSKDSTYSLSSTLTLSKADYEKHKVYACEVTHQGLSSPVTKSFNRGEC",59.1 % of HeCon Ab,76.9 % of HeCon Ab
"GpH7-A5/GpH7-B3 variant L235_20W/GpL16-k0 (heterodimerized antibody, He Ab) (antibody, human IgG1, kappa, Anti-glypican-3 IgG1; the alteration is in the GpH7-B3 chain only; also called L235W) heavy 1: not shown heavy 2: not shown light: DIVMTQSPLSLPVTPGEPASISCQASESLVHSNRNTYLHWYLQKPGQSPQLLIYKVSNRFSGVPDRFSGSGSGTDFTLKISRVEAEDVGVYYCSQNTHVPPTFGQGTKVEIERTVAAPSVFIFPPSDEQLKSGTASVVCLLNNFYPREAKVQWKVDNALQSGNSQESVTEQDSKDSTYSLSSTLTLSKADYEKHKVYACEVTHQGLSSPVTKSFNRGEC",76.4 % of HeCon Ab,147 % of HeCon Ab
"GpH7-A5/GpH7-B3 variant P238_01G/GpL16-k0 (heterodimerized antibody, He Ab) (antibody, human IgG1, kappa, Anti-glypican-3 IgG1; the alteration is in the GpH7-B3 chain only; also called P238G) heavy 1: not shown heavy 2: not shown light: DIVMTQSPLSLPVTPGEPASISCQASESLVHSNRNTYLHWYLQKPGQSPQLLIYKVSNRFSGVPDRFSGSGSGTDFTLKISRVEAEDVGVYYCSQNTHVPPTFGQGTKVEIERTVAAPSVFIFPPSDEQLKSGTASVVCLLNNFYPREAKVQWKVDNALQSGNSQESVTEQDSKDSTYSLSSTLTLSKADYEKHKVYACEVTHQGLSSPVTKSFNRGEC",33 % of HeCon Ab,56 % of HeCon Ab
"GpH7-A5/GpH7-B3 variant P238_02A/GpL16-k0 (heterodimerized antibody, He Ab) (antibody, human IgG1, kappa, Anti-glypican-3 IgG1; the alteration is in the GpH7-B3 chain only; also called P238A) heavy 1: not shown heavy 2: not shown light: DIVMTQSPLSLPVTPGEPASISCQASESLVHSNRNTYLHWYLQKPGQSPQLLIYKVSNRFSGVPDRFSGSGSGTDFTLKISRVEAEDVGVYYCSQNTHVPPTFGQGTKVEIERTVAAPSVFIFPPSDEQLKSGTASVVCLLNNFYPREAKVQWKVDNALQSGNSQESVTEQDSKDSTYSLSSTLTLSKADYEKHKVYACEVTHQGLSSPVTKSFNRGEC",31.4 % of HeCon Ab,57.4 % of HeCon Ab
